For one molecule, koff results are on record in paper PMC12097070 (2025).

The target of this test is human glucose‐regulated protein 78 (hGRP78), full-length (human, UniProt P11021 19-654). Put plainly: SPR. For orientation: In SPR one partner is held on a chip, and binding of the other changes the refractive index at the surface.
human glucose‐regulated protein 78 (hGRP78), full-length, sequence (P11021 19-654): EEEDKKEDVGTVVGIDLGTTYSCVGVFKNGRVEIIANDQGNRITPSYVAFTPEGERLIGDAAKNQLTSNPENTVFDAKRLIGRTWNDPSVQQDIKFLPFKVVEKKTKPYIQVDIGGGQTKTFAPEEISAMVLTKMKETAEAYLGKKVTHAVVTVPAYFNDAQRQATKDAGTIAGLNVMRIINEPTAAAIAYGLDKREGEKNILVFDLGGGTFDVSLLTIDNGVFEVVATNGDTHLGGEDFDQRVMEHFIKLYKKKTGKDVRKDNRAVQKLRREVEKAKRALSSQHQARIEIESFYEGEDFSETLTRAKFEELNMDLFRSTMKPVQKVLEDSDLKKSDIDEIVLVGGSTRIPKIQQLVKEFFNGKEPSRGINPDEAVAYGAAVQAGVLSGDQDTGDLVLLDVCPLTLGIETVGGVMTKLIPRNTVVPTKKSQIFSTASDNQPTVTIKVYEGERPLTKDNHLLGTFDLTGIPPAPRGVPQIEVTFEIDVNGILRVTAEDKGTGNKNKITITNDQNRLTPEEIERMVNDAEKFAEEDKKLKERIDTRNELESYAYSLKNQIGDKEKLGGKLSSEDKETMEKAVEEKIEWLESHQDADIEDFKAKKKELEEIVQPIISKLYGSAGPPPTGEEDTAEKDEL

B1: Nb NBD1 (VHH)
VHH: AVQLVESGGGSVQAGGSLTLSCAASINTGNPALVGWYRQAPGKQREMVAMISISGNTNYAPSVKGRFTISRDNANKTIFLQMNSLTPEDTAVYYCKKLPFGSWGQGTQVTVSS
With B1, the koff is 0.000575 s⁻¹.

Broadly, the koff is the first-order rate constant of dissociation.
